In patent publication US20240368285A1 (HEFEI TG IMMUNOPHARMA, published 2024):

Legend:
[1] = biological target: T1, MICA005α3-Fc (human); test: ELISA on coated MICA*005 α3-Fc (1 µg/ml), HRP anti-human Fab secondary, OD450
T1 construct: also called MICA*005-Fc; domain α3 of MICA-005 Fc fusion protein
Experimental: (§1) After the antibodies were added, signal intensity was used for judging the binding characteristics of the antibodies and MICA and MICB.
(§2) The fusion proteins (produced in the Applicant's laboratory; an amino acid sequence of MICA002α3-Fc is as set forth in SEQ ID NO: 22; an amino acid sequence of MICA005α3-Fc is as set forth in SEQ ID NO: 24; an amino acid sequence of MICA008α3-Fc is as set forth in SEQ ID NO: 25; an amino acid sequence of MICA004α3-Fc is as set forth in SEQ ID NO: 23; an amino acid sequence of MICB001α3-Fc is as set forth in SEQ ID NO: 26; and an amino acid sequence of MICB005α3-Fc is as set forth in SEQ ID NO: 27) were diluted to a concentration of 1 μg/ml with PBS and then added into a 96-well plate in a volume of 100 μl/well. The plate was placed at 4° C. overnight. The PBS in the 96-well plate was removed by sucking. After the plate was washed with PBST (that is, PBS having a pH value of 7.2 included 0.1 volume % of Tween 20) for 6 times, PBS containing 10% of BSA was added in a volume of 200 μl/well. The plate was incubated at 37° C. for 2 hours for blocking. The blocking solution was removed. […]

[2] = biological target: T2, MICB001α3-Fc; test: ELISA on coated MICB*001 α3-Fc (1 µg/ml), HRP anti-human Fab secondary, OD450
T2 construct: also called MICB*001-Fc; domain α3 of MICB-001 Fc fusion protein
Experimental: as §1, §2

[3] = biological target: T3, MICA on human tumor cells (A-375, A549, HCT-15, MDA-MB-231) (human, UniProt Q29983 24-383); test: flow cytometry on HCT-15 cells, Alexa-647 goat anti-human secondary, average fluorescence intensity
T3 construct: whole, on cells
T3 sequence (looked up): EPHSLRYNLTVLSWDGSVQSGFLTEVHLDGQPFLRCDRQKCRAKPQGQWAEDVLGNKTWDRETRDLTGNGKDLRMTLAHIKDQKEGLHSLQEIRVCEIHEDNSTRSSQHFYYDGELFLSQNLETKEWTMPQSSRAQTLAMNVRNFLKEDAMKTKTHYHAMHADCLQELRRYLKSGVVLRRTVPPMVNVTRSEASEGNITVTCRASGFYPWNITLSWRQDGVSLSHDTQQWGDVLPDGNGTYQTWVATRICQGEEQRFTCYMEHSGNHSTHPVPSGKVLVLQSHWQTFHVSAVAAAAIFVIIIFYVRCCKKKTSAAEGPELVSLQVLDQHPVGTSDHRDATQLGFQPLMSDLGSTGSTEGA
Experimental: (1) Tumor cells were diluted to a density of 2×10⁶/mL with PBS and then added into a 1.5 ml EP tube in a volume of 100 l/tube. 10 l/tube of goat serum was added into the EP tube; and blocking was conducted at 4° C. for 30 min. Antibody h5A1 (having a heavy chain sequence as set forth in SEQ ID NO: 11 and a light chain sequence as set forth in SEQ ID NO: 12), antibody h5A1002 (having a heavy chain sequence as set forth in SEQ ID NO: 13 and a light chain sequence as set forth in SEQ ID NO: 14), and control IgG1 (purchased from Biointron) were gradient-diluted (at a highest working concentration of 50 μg/ml, 10 gradients, diluted by 3 times for each gradient) and added. The tube was incubated at 4° C. for 30 min. 1 mL of PBS was added into the EP tube, and centrifugation was conducted 4° C. at a rate of 3,500 rpm for 5 min. The supernatant was removed. The EP tube was washed once with the PBS. The supernatant was removed after centrifugation. The cells were resuspended with PBS in a volume of 100 l/tube. An Alexa-647 labeled goat anti-human secondary antibody (purchased from Jackson lab) was added into the tube in a volume of 1 l/tube; and the plate was incubated in the dark at 4° C. for 30 min. The tube was washed twice with PBS, and the supernatant was removed after centrifugation. […]

T1 sequence (chain, as listed by the source limits assumed): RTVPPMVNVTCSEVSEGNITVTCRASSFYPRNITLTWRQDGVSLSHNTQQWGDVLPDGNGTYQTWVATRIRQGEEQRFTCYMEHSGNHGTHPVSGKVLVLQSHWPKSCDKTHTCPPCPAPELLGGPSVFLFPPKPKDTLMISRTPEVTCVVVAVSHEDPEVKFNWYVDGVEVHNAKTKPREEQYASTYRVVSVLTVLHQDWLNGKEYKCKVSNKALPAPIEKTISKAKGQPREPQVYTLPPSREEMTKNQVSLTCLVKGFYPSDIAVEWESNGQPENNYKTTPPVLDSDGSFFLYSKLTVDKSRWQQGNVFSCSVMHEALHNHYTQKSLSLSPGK
T2 sequence (chain, as listed by the source limits assumed): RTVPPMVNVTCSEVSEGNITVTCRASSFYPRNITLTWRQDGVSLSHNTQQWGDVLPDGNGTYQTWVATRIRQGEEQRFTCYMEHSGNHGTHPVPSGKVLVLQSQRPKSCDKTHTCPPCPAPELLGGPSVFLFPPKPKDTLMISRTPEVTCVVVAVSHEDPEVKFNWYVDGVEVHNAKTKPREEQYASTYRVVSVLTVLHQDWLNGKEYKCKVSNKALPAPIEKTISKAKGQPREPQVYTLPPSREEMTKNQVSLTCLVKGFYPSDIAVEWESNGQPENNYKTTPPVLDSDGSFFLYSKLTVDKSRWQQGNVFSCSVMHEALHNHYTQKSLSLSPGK

B1: affinity maturation antibody h5A1002 (antibody, V domains shown)
VH: QVQLQESGPGLVKPSETLSLTCTVSGFSLTTYGGHWIRQPPGKGLEWIGMIWTDGWTDYNAAFISRVTISVDTSKNQFSLKLSSVTAADTAVYYCARKGHGYYYAMDYWGQGTLVTVSS
VL: EIVLTQSPGTLSLSPGERATLSCTASSSVSSSYLHWYQQKPGQAPRLLIYSTSNLISGIPDRFSGSGSGTDFTLTISRLEPEDFAVYYCHQYHRSPFTFGQGTKLEIKR
notes: Human IgG1, kappa; also called h5A1002-hIgG1
For B1, the “EC50 (read off the curve)” value [1] was roughly 0.07 µg/mL, the “EC50 (read off the curve)” value [2] was roughly 0.05 µg/mL and the “EC50 (read off the curve)” value [3] was roughly 1 µg/mL.
